Source: the nanobody polyreactivity screen of Harvey et al. (2022)

Assay: yeast display, Sf9 membrane polyspecificity reagent, FACS + sequencing; frameworks hold sequencing errors
How it was run: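 Nanobodies came from a synthetic yeast display library in Saccharomyces cerevisiae BJ5465, induced with galactose for 36–48 hours and stained for 1 hour at 4 °C with 10% biotinylated, detergent-solubilized Sf9 membrane reagent. Cells were enriched on streptavidin microbeads and then FACS-sorted, with low and high (top ~1%) gates set on anti-HA fluorescence for expression and streptavidin fluorescence for reagent binding. Each polyreactivity label reflects the gate a clone came from. Genes were amplified by colony PCR, sequenced by MiSeq 2 × 250 and filtered by CDR length.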

Row | Sequence | polyreactivity (PSR sort gate)
1 | QVQLVESGGGLVQAGGSLRLSCAASGYTFSPNDMGWYRQAPGKERELVAAMTSSVGSTYYADSVKGRFTISRDNAKNTVFLQMNSLKPEDTAVFYCAADTWYLGYPDFWLDYWGQGTQVTVSS | low polyreactivity
2 | QVQLVESGGGLVQAGGSLRLSCAASGYTFSRYAMGWYRQAPGKERELVADISRSGGSTDYADSVKGRFTISRDNAKNTVYLQMNSLKPEETAVYYCAKGSWWGYYSYGFDYWGQGTQVTVSS | high polyreactivity
3 | QVQLVESGGGLVQAGGSLRLSCAASGYTFSYYDMGWYRQAPGKERELVAGISKRGGSTRYADSVKGRFTISRDNAKNTVYLQMNSLKPEDTAVYYCNRLPYLHYAGRLTNYDYWGQGTQVTVSS | high polyreactivity
4 | QVQLVESGGGLVQAGGSLRLSCAASGYTFSYYTMGRYLQAPGKERELVAVITSAGGTYFADSVKGRFTISRDNAKNTVYLQMNSLKPEDTAVYYCAAERWADYVWIFIDDYDYLGQGTQVTVSS | low polyreactivity
5 | QVQLVESGGGLVQAGGSLRLSCAASGYTFTGYAMGWYRQAPGKERELVAAISWNGGSTFYADSVKGRFTISRDNAKNTVYLQMNSLKPEDTAVYYCATPRKLAYSPKLDYWGQGTQVTVSS | low polyreactivity
6 | QVQLVESGGGLVQAGGSLRLSCAASGYTFTQNAMGWYRQAPGQERELVASLTSGGSTDYADSVKGRFTISRDNAKNTVYLQMNSVKPEDTAVYYCAAGTATDVASIGATKDYDYWGQVTQVTVSS | low polyreactivity
7 | QVQLVESGGGLVQAGGSLRLSCAASGYTFTRYAMGWYRQAPGKEREFVAAITSGGGSTYYADSVKGRFTISRDNAKNTVYLQMNSLKPEDTAVYYCAADLTSLWYTVQLELDFWGQGTQVTVSS | low polyreactivity
8 | QVQLVESGGGLVQAGGSLRLSCAASGYTFTSNAMGWYRQAPGKERELVAAITNVGSTNYADSVKGRFTISRDNAKNTVYLQMNSLKPEDTAVYYCAADWDAVYLQTADYDYWGQGTQVTVSS | low polyreactivity
9 | QVQLVESGGGLVQAGGSLRLSCAASGYTFVIYAMGWYRQAPGKERELVAAITTIGGRTYYADSVKGRFTISRDNAKNTVYLLMNSLKPEDTAVYYCAADIRSNRLYDGGYWGQGTQVTVSS | low polyreactivity
10 | QVQLVESGGGLVQAGGSLRLSCAASGYTFVKYAMGWYRQAPGKERELVASISWSGGRTYYADSVKGRFTISRDNAKNTVYLQMNSLKPEDTAVYYCATRPTWYSYDYWGHGTQVTVSS | high polyreactivity
11 | QVQLVESGGGLVQAGGSLRLSCAASGYTFVVYAMGWYRQAPGKERELVARISSGGSTFYADSVKGRFTISRDNAKNTVYLQMNSLKPEDTAVYYCAAQWTRYRRRPMDYWGQGTQVTVSS | high polyreactivity
12 | QVQLVESGGGLVQAGGSLRLSCAASGYTFVYNGMGWYRQAPGKERELVAAIRRRTGTTYYADSVKGRFTISRDNAKNTVYLQMNSLKPEDTAVYYCAATGFWGYDWGQGTQVTVSS | high polyreactivity
13 | QVQLVESGGGLVQAGGSLRLSCAASGYTFWDYTMGWYRQAPGKEREFVAAINWSGGSTYYADSVKGRFTISRDNAKKTVYLQMNSLKPEDTAVYYCAARRGGRRGYDYWGQGTQVTVSS | high polyreactivity
14 | QVQLVESGGGLVQAGGSLRLSCAASGYTFWDYTMGWYRQAPGKERELVAAISSSGSSTYYADSVKGRFTISRDNAKNTVYLQMNSLKPEDTAVYYCAAYSRRQWKYDYWGQGTQVTVSS | high polyreactivity
15 | QVQLVESGGGLVQAGGSLRLSCAASGYTFYANAMGWYRQAPGKEREFVASINYSGGSTYYADSVKGRFTISRDNAKNTVYLQINSLKPEDTSVYYCAARTGTLDDWDYAYDYWGQGTQVTVSS | low polyreactivity
16 | QVQLVESGGGLVQAGGSLRLSCAASGYTFYAYAMGWYRQAPGKERELVATISSGGRTYYADSVKGLFTISRDNAKNTVYLQMNSLKPEDTAVYYCAARKTRYISRFDYWGQGTQVTVSS | high polyreactivity

Row | Sequence | polyreactivity (PSR sort gate)
17 | QVQLVESGGGLVQAGGSLRLSCAASGYTFYFYAMGWYRQAPGKEREFVAAIRSSGGRTYYADSVKGRFTISRDNAKNTVYLQMNSLKPEDTAVYYCAAAGYYYSVDGAGPRYDYWGQGTQVTVSS | low polyreactivity
18 | QVQLVESGGGLVQAGGSLRLSCAASGYTFYIYVMGWYRQAPGKERELVAAISSGDSTNYADSVKGRFTISRDNAKNTVYLQMNSLKPEDTAVYYCNAVHRSIARGGGMDYWGQGTQVTVSS | low polyreactivity
19 | QVQLVESGGGLVQAGGSLRLSCAASGYTFYKNTMGWYRQAPGKERELVARISRSGGSTYYADSVKGRFTISRDNAKNTVYLQMNSLKPEDTAVYYCAVRQGYRSGIYEYDYWGQGTQVTVSS | high polyreactivity
20 | QVQLVESGGGLVQAGGSLRLSCAASGYTFYPYDIGWYRQAPGKERELVAAISWSGGGTYYADSVKGRFTISRDNAKNTVYLQMNSLKPEDTAVYYCAADLKALNQSYPGYEYWGQGTQVTVSS | low polyreactivity
21 | QVQLVESGGGLVQAGGSLRLSCAASGYTFYQYAMGWYRQAPGKESELVADISRSGVSTYYADSVKGRFTISRDNAKNTVYLQMNSLKPEDTAVYYCAARRPFYRQLDYWGQGTQVTVSS | high polyreactivity
22 | QVQLVESGGGLVQAGGSLRLSCAASGYTFYVYAMGWYRQAPGTERELVADISTSDGSTYYADSVKGRFTISRDNAKNTVYLQMNSLKPEDTAVYYCNTDGSHGLYDWFWPANNDYWGQGTQVTVSS | low polyreactivity
23 | QVQLVESGGGLVQAGGSLRLSCAASGYTFYYNTMGWYRQAPGKERELVARINSAGRTNYADSVKGRFTISRDNAKNTVYLQMNSLKPKDTAVYYCAADGPANPDELKVNDFDYWGQGTQVTVSS | high polyreactivity
24 | QVQLVESGGGLVQAGGSLRLSCAASGYTFYYSMGWYRQAPGKERELVAAISAGGGRTYYADSVKGRFTISRDNAKNTVYLQMNSLKPEDTAVYYCNRVYRLTAYGYDYWGQGTQVTVSS | high polyreactivity
25 | QVQLVESGGGLVQAGGSLRLSCAASGYTILSYGMGWYRQAPGKERELVADISSGDRTNYADSVKGRFTISRDNAKNTVYLQMNSLKPEDTAVYYCNADRASSSVGYSDDFGHDSWGQGTQVTVSS | low polyreactivity
26 | QVQLVESGGGLVQAGGSLRLSCAASGYTIYIYAMGWYRQAPGKEREFVATISRSGGSTSYADSVKGRFTISRDNAKNTVYLQMNSLKPEDTSVYYCAAEWGYYAVGAQYYYWGQGTQVTVSS | high polyreactivity
27 | QVQLVESGGGLVQAGGSLRLSCAASGYTLFRNAMGSYRQAPGKERELGAAISRSGARTYYADSVKGRFTISRDNAKNTVYLQMNSLKPEDTAVYYCAAVIKWTKDDYWGQGTQVTVSS | high polyreactivity
28 | QVQLVESGGGLVQAGGSLRLSCAASGYTLGTYAMGWYRQAPGKERELVAAITWSGGRTNYADSVKGRFTISRDNAKNTVYLQMNSLKPEDTAVYYCAARYYFPFRRFRRMDYWGQGTQVTVSS | high polyreactivity
29 | QVQLVESGGGLVQAGGSLRLSCAASGYTLKWYTMGWYRQAPGKERELVATIRRGGGTYYADSVKGRFTISRDNAKNTVYLQMNSLKPEDTAVYYCNARDRRRTNLLDYWGQGTQVTVSS | low polyreactivity
30 | QVQLVESGGGLVQAGGSLRLSCAASGYTLSLNAMGWYRQAPGKEREFVARISGRGGSTYYADSVKGRFTISRDNAKNTVYLQMNSLKPEDTAVYYCAATWWPWGTDNRGMYYWGQGTQVTVSS | high polyreactivity
31 | QVQLVESGGGLVQAGGSLRLSCAASGYTRFYAMGWYRQAPGTERELVAAISSSGGTTYYADSVKGRFTISRDNAKNTVYLQMNSLKPEDTAVYYCAKYVSYSRTLYDYWGQGTQVTVSS | low polyreactivity
